# Assay results taken from paper PMC6702222, “Visualizing structural transitions of ligand-dependent gating of the TRPM2 channel” (Nature Communications, 2019).
# Target: the molecule itself
# Assay: cryo-EM structure; TRPM2DR in digitonin, Ca2+-free buffer, incubated with 1 mM EDTA (ligand-free); refined with C4 (~4.3 A) and C2 (~4.5 A) symmetry
protein,measurement,value
"Danio rerio (zebrafish) transient receptor potential melastatin 2 channel, full-length wild type (natural protein, UniProt A0A0R4IMY7 1-1470, looked up, TRPM2, zebrafish (Danio rerio), NCBI XP_009303266.1, full-length wild type from a codon-optimized synthetic gene; Homo-tetramer in all cryo-EM reconstructions; also called TRPM2DR; TRPM2; source: for the ADPR/Ca2+ sample reconstituted into amphipol PMAL-C8) MDEAALEPTLVQTLAVSTAKGGRYLSLSPSFQRCSLASWIKENIKKKECCFYVEDGREGICKCGYPKVQHCDEAIKPEDYMGEQWDKHRHVRETPTDAFGDISFGGLGQKTGKYVRVSSDTSCENLYQLMTEQWKLRSPNLLISVTGGAKNFYIKTHLKDKFRRGLIKVAQTTGAWILTGGTHAGVMKHVGMAVRDYTLSSGSMEGQIVVIGVAPWGVIHNRSTLIHPEGRFPAYYSLDEQGQGRLSCLDINHTHFLLVDDGTQGHYGVEIELRARLEKLISKLSLGNRESGVTIPVVCVVLDGGPGTLNTIYNSMLNHTPCVVLEGSGRLADVIAHVASVPVSKVTMALINRLLKRFFMQEYKNFTELQIIEWTKKIQDILRMPHLLTVFRIDEDKNYDVDVAILQALLKASRSDEHAGRHCWERQLELAVAWNRVDIAESEIFTEESQWTSSDLHPAMFSALVGDKPEFVRLLLENGVCVREFLEREETLCELYSHLPSCFFLRKLAKRVQGGKMRRGQEPLPGSRKVCLSHVSEEVRHLLGSFTQPLYIASRYKPTKDDVRLKVPSKGALDLPCSGEEWSADTVWDPGRDLFLWAVVQNNRELAEIGWEQCRDCIAAALAASKILRKLAQESGEDDSEEATEMLELANHYEKQAIGVFSECHSWDAQRAQKLLIRISPSWGRSTCLWLALEAHDKSFIAHSGVQALLTQIWCGELSVDNPHWKVLLCMIFFPLIYTGFLTFRRDEDIQRQAERTEQQKLAMESVFAGQSDGKIKRHLRGFSQKSELKPLNCSSRLMSFLKSPQVKFYWNIASYFGFLWLFAVVLMIDFQTSPSWRELLLYVWLTSLVCEEIRQLYHDFDGSGFRRKAKMYIKDLWNILDVLSIVLFIAGLICRLQASDTVFYIGKVILCIDFIIFCLRLMAIFSISRTLGPKIIIVRRMMLDLFFFMFLLSIWVVAYGVAKQGILIENEERLNWIIRGAVYEPYITIFGNFPTNIDNTLFDISSCSVNASDPLKPKCPMLNADNTPVFPEWLTIMMLCVYLLFANILLLNLLIAIFNYTFQEVQDNTDTIWKFQRYELIKEYHSRPALPPPFILLSHLILFIRGVFLRDLPQRHKNFRQELEQTEEEELLSWEAYMKDNYLASTRQDESQSVEHRIHDTAEKVGAMSELLEREQEMVSATMAKRLARLEEQVSESAKALRWIIDALKSQGCKSKVQPPLMRSKSSDRDDGDSSGQETDDEEAPHMFARQLQYPDSTVRRFPVPEEKVSWEVNFSPYQPPVYNQQDSSESDTSALDKHRNPGGRTGIRGKGALNTLGPNHILHPIFTRWRDAEHKVLEFLAVWEDAEKRWALLGGPAQPDEPLAQVLERILGKKLNEKTKTLLKAGEEVYKGYVDDSRNTDNAWVETSIITLHCDKNTPLMADLNHMVESSLSSHQPLQWREVSSDACRCSYQREALRQIAHHHNTYF",stoichiometry N,4
